Results reported in US20240279318A1 (NANJING LEGEND BIOTECH, published 2024).

Assays:
[1] = biological target: T1, AFP158/HLA-A*02:01 complex (human); assay: SPR, fold vs AS170036 VL1VH1;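 note: crude scFv muteins immobilised on a sensor chip, peptide–MHC complex passed over at several concentrations, binding then buffer-driven dissociation, KD estimated from on- and off-rates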
T1 construct: flowed as analyte in SPR

[2] = biological target: T1, AFP158/HLA-A*02:01 complex; assay: SPR, crude scFv captured, pMHC analyte;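 note: complex injected at several concentrations over the chip, association phase then running buffer for dissociation, KD derived from on- and off-rates computed from both curves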
Procedure: The experiment was carried out as follows. The crude scFv protein were captured onto the sensorchip. Different concentrations (320, 160, 40 nM) of AFP158/HLA-A*02:01 complex flowed over the sensorchip surface, and were allowed to bind the antibody fragment for 100 s followed by injection of the running buffer to allow dissociation of the complex. On-rate (kd) and off-rate (kd) were calculated based on association and dissociation curve, and were used to estimate the equilibrium dissociation constant (KD).
The crude scFv muteins were then subjected to SPR affinity measurement by the method mentioned above.

Binder | Affinity increase [1] [fold] | Kd [2] [nM] | koff [2] [s⁻¹] | kon [2] [M⁻¹ s⁻¹]
AS170036 VL1VH1-56N98F108A (scFv, also called 49-AS170036 VL1VH1-56N98F108A) scFv: QSALTQPRSVSGSPGQSVTISCAGTSSDVGSENYVSWYQQHPGKAPKLMIYQVNKRASGVPDRFSGSKSGNTASLTISGLQAEDEADYYCASYRSSDFNIVFGGGTKLTVLGGGGSGGGGSGGGGSEVQLVESGGGLVQPGGSLRLSCAASGFTFSSYAMSWVRQAPGKGLEWVSTINSGTNSPYYADSVKGRFTISRDNSKNTLYLQMNSLRAEDTAVYYCAKNFFDGSWFLAPPAMDYWGQGTLVTVSSHHHHHH | 41.7 | 5.4 | 0.0015 | 270000
AS170036 VL1VH1-56N98F108D (scFv, also called 50-AS170036 VL1VH1-56N98F108D) scFv: QSALTQPRSVSGSPGQSVTISCAGTSSDVGSENYVSWYQQHPGKAPKLMIYQVNKRASGVPDRFSGSKSGNTASLTISGLQAEDEADYYCASYRSSDFNIVFGGGTKLTVLGGGGSGGGGSGGGGSEVQLVESGGGLVQPGGSLRLSCAASGFTFSSYAMSWVRQAPGKGLEWVSTINSGTNSPYYADSVKGRFTISRDNSKNTLYLQMNSLRAEDTAVYYCAKNFFDGSWFLDPPAMDYWGQGTLVTVSSHHHHHH | 36.4 | 6.2 | 0.0019 | 310000
AS170036 VL1VH1-56N98F108S (scFv, also called 51-AS170036 VL1VH1-56N98F108S) scFv: QSALTQPRSVSGSPGQSVTISCAGTSSDVGSENYVSWYQQHPGKAPKLMIYQVNKRASGVPDRFSGSKSGNTASLTISGLQAEDEADYYCASYRSSDFNIVFGGGTKLTVLGGGGSGGGGSGGGGSEVQLVESGGGLVQPGGSLRLSCAASGFTFSSYAMSWVRQAPGKGLEWVSTINSGTNSPYYADSVKGRFTISRDNSKNTLYLQMNSLRAEDTAVYYCAKNFFDGSWFLSPPAMDYWGQGTLVTVSSHHHHHH | 17.6 | 13 | 0.0028 | 210000
AS170036 VL1VH1-56N98I108A (scFv, also called 52-AS170036 VL1VH1-56N98I108A) scFv: QSALTQPRSVSGSPGQSVTISCAGTSSDVGSENYVSWYQQHPGKAPKLMIYQVNKRASGVPDRFSGSKSGNTASLTISGLQAEDEADYYCASYRSSDINIVFGGGTKLTVLGGGGSGGGGSGGGGSEVQLVESGGGLVQPGGSLRLSCAASGFTFSSYAMSWVRQAPGKGLEWVSTINSGTNSPYYADSVKGRFTISRDNSKNTLYLQMNSLRAEDTAVYYCAKNFFDGSWFLAPPAMDYWGQGTLVTVSSHHHHHH | 62 | 3.6 | 0.00093 | 260000
AS170036 VL1VH1-56N98I108D (scFv, also called 53-AS170036 VL1VH1-56N98I108D) scFv: QSALTQPRSVSGSPGQSVTISCAGTSSDVGSENYVSWYQQHPGKAPKLMIYQVNKRASGVPDRFSGSKSGNTASLTISGLQAEDEADYYCASYRSSDINIVFGGGTKLTVLGGGGSGGGGSGGGGSEVQLVESGGGLVQPGGSLRLSCAASGFTFSSYAMSWVRQAPGKGLEWVSTINSGTNSPYYADSVKGRFTISRDNSKNTLYLQMNSLRAEDTAVYYCAKNFFDGSWFLDPPAMDYWGQGTLVTVSSHHHHHH | 44.4 | 5.1 | 0.0014 | 280000
AS170036 VL1VH1-56N98I108S (scFv, also called 54-AS170036 VL1VH1-56N98I108S) scFv: QSALTQPRSVSGSPGQSVTISCAGTSSDVGSENYVSWYQQHPGKAPKLMIYQVNKRASGVPDRFSGSKSGNTASLTISGLQAEDEADYYCASYRSSDINIVFGGGTKLTVLGGGGSGGGGSGGGGSEVQLVESGGGLVQPGGSLRLSCAASGFTFSSYAMSWVRQAPGKGLEWVSTINSGTNSPYYADSVKGRFTISRDNSKNTLYLQMNSLRAEDTAVYYCAKNFFDGSWFLSPPAMDYWGQGTLVTVSSHHHHHH | 22.3 | 10 | 0.0019 | 190000
AS170036 VL1VH1-56N98Q108A (scFv, also called 55-AS170036 VL1VH1-56N98Q108A) scFv: QSALTQPRSVSGSPGQSVTISCAGTSSDVGSENYVSWYQQHPGKAPKLMIYQVNKRASGVPDRFSGSKSGNTASLTISGLQAEDEADYYCASYRSSDQNIVFGGGTKLTVLGGGGSGGGGSGGGGSEVQLVESGGGLVQPGGSLRLSCAASGFTFSSYAMSWVRQAPGKGLEWVSTINSGTNSPYYADSVKGRFTISRDNSKNTLYLQMNSLRAEDTAVYYCAKNFFDGSWFLAPPAMDYWGQGTLVTVSSHHHHHH | 54.1 | 4.2 | 0.001 | 240000
AS170036 VL1VH1-56N98Q108D (scFv, also called 56-AS170036 VL1VH1-56N98Q108D) scFv: QSALTQPRSVSGSPGQSVTISCAGTSSDVGSENYVSWYQQHPGKAPKLMIYQVNKRASGVPDRFSGSKSGNTASLTISGLQAEDEADYYCASYRSSDQNIVFGGGTKLTVLGGGGSGGGGSGGGGSEVQLVESGGGLVQPGGSLRLSCAASGFTFSSYAMSWVRQAPGKGLEWVSTINSGTNSPYYADSVKGRFTISRDNSKNTLYLQMNSLRAEDTAVYYCAKNFFDGSWFLDPPAMDYWGQGTLVTVSSHHHHHH | 39.1 | 5.8 | 0.0015 | 260000
AS170036 VL1VH1-56N98Q108S (scFv, also called 57-AS170036 VL1VH1-56N98Q108S) scFv: QSALTQPRSVSGSPGQSVTISCAGTSSDVGSENYVSWYQQHPGKAPKLMIYQVNKRASGVPDRFSGSKSGNTASLTISGLQAEDEADYYCASYRSSDQNIVFGGGTKLTVLGGGGSGGGGSGGGGSEVQLVESGGGLVQPGGSLRLSCAASGFTFSSYAMSWVRQAPGKGLEWVSTINSGTNSPYYADSVKGRFTISRDNSKNTLYLQMNSLRAEDTAVYYCAKNFFDGSWFLSPPAMDYWGQGTLVTVSSHHHHHH | 20.8 | 11 | 0.0019 | 180000
AS170036 VL1VH1-56Y98F108A (scFv, also called 40-AS170036 VL1VH1-56Y98F108A) scFv: QSALTQPRSVSGSPGQSVTISCAGTSSDVGSENYVSWYQQHPGKAPKLMIYQVNKRASGVPDRFSGSKSGNTASLTISGLQAEDEADYYCASYRSSDFNIVFGGGTKLTVLGGGGSGGGGSGGGGSEVQLVESGGGLVQPGGSLRLSCAASGFTFSSYAMSWVRQAPGKGLEWVSTINSGTYSPYYADSVKGRFTISRDNSKNTLYLQMNSLRAEDTAVYYCAKNFFDGSWFLAPPAMDYWGQGTLVTVSSHHHHHH | 142 | 1.6 | 0.00038 | 240000
AS170036 VL1VH1-56Y98F108D (scFv, also called 41-AS170036 VL1VH1-56Y98F108D) scFv: QSALTQPRSVSGSPGQSVTISCAGTSSDVGSENYVSWYQQHPGKAPKLMIYQVNKRASGVPDRFSGSKSGNTASLTISGLQAEDEADYYCASYRSSDFNIVFGGGTKLTVLGGGGSGGGGSGGGGSEVQLVESGGGLVQPGGSLRLSCAASGFTFSSYAMSWVRQAPGKGLEWVSTINSGTYSPYYADSVKGRFTISRDNSKNTLYLQMNSLRAEDTAVYYCAKNFFDGSWFLDPPAMDYWGQGTLVTVSSHHHHHH | 110 | 2 | 0.00054 | 270000
AS170036 VL1VH1-56Y98F108S (scFv, also called 42-AS170036 VL1VH1-56Y98F108S) scFv: QSALTQPRSVSGSPGQSVTISCAGTSSDVGSENYVSWYQQHPGKAPKLMIYQVNKRASGVPDRFSGSKSGNTASLTISGLQAEDEADYYCASYRSSDFNIVFGGGTKLTVLGGGGSGGGGSGGGGSEVQLVESGGGLVQPGGSLRLSCAASGFTFSSYAMSWVRQAPGKGLEWVSTINSGTYSPYYADSVKGRFTISRDNSKNTLYLQMNSLRAEDTAVYYCAKNFFDGSWFLSPPAMDYWGQGTLVTVSSHHHHHH | 56.3 | 4 | 0.00074 | 190000
AS170036 VL1VH1-56Y98I108A (scFv, also called 43-AS170036 VL1VH1-56Y98I108A) scFv: QSALTQPRSVSGSPGQSVTISCAGTSSDVGSENYVSWYQQHPGKAPKLMIYQVNKRASGVPDRFSGSKSGNTASLTISGLQAEDEADYYCASYRSSDINIVFGGGTKLTVLGGGGSGGGGSGGGGSEVQLVESGGGLVQPGGSLRLSCAASGFTFSSYAMSWVRQAPGKGLEWVSTINSGTYSPYYADSVKGRFTISRDNSKNTLYLQMNSLRAEDTAVYYCAKNFFDGSWFLAPPAMDYWGQGTLVTVSSHHHHHH | 212 | 1.1 | 0.00025 | 240000
AS170036 VL1VH1-56Y98I108D (scFv, also called 44-AS170036 VL1VH1-56Y98I108D) scFv: QSALTQPRSVSGSPGQSVTISCAGTSSDVGSENYVSWYQQHPGKAPKLMIYQVNKRASGVPDRFSGSKSGNTASLTISGLQAEDEADYYCASYRSSDINIVFGGGTKLTVLGGGGSGGGGSGGGGSEVQLVESGGGLVQPGGSLRLSCAASGFTFSSYAMSWVRQAPGKGLEWVSTINSGTYSPYYADSVKGRFTISRDNSKNTLYLQMNSLRAEDTAVYYCAKNFFDGSWFLDPPAMDYWGQGTLVTVSSHHHHHH | 152 | 1.5 | 0.00038 | 260000
AS170036 VL1VH1-56Y98I108S (scFv, also called 45-AS170036 VL1VH1-56Y98I108S) scFv: QSALTQPRSVSGSPGQSVTISCAGTSSDVGSENYVSWYQQHPGKAPKLMIYQVNKRASGVPDRFSGSKSGNTASLTISGLQAEDEADYYCASYRSSDINIVFGGGTKLTVLGGGGSGGGGSGGGGSEVQLVESGGGLVQPGGSLRLSCAASGFTFSSYAMSWVRQAPGKGLEWVSTINSGTYSPYYADSVKGRFTISRDNSKNTLYLQMNSLRAEDTAVYYCAKNFFDGSWFLSPPAMDYWGQGTLVTVSSHHHHHH | 81.5 | 2.8 | 0.0005 | 180000
AS170036 VL1VH1-56Y98Q108A (scFv, also called 46-AS170036 VL1VH1-56Y98Q108A) scFv: QSALTQPRSVSGSPGQSVTISCAGTSSDVGSENYVSWYQQHPGKAPKLMIYQVNKRASGVPDRFSGSKSGNTASLTISGLQAEDEADYYCASYRSSDQNIVFGGGTKLTVLGGGGSGGGGSGGGGSEVQLVESGGGLVQPGGSLRLSCAASGFTFSSYAMSWVRQAPGKGLEWVSTINSGTYSPYYADSVKGRFTISRDNSKNTLYLQMNSLRAEDTAVYYCAKNFFDGSWFLAPPAMDYWGQGTLVTVSSHHHHHH | 183 | 1.2 | 0.00028 | 230000
AS170036 VL1VH1-56Y98Q108D (scFv, also called 47-AS170036 VL1VH1-56Y98Q108D) scFv: QSALTQPRSVSGSPGQSVTISCAGTSSDVGSENYVSWYQQHPGKAPKLMIYQVNKRASGVPDRFSGSKSGNTASLTISGLQAEDEADYYCASYRSSDQNIVFGGGTKLTVLGGGGSGGGGSGGGGSEVQLVESGGGLVQPGGSLRLSCAASGFTFSSYAMSWVRQAPGKGLEWVSTINSGTYSPYYADSVKGRFTISRDNSKNTLYLQMNSLRAEDTAVYYCAKNFFDGSWFLDPPAMDYWGQGTLVTVSSHHHHHH | 122 | 1.8 | 0.00044 | 240000
